Two substances from paper PMC7896290 can be followed below.

Test [1] addresses anti-DNP wild-type human monoclonal IgG1 (human). In words: native MS.
In test [2] the target is anti-DNP IgG1-RGY (human IgG1 with E345R, E430G, S440Y) (human). In words: high-speed atomic force microscopy.
Test [3] concerns the target human monoclonal IgG2 (human). In words: native MS.
In test [4] the target is human monoclonal IgG4 (human). In words: native MS.

In turn, “SpA-B domain wild type (single B-domain of staphylococcal protein A) (domain or fragment)” gave a stoichiometry N (SpA-B per IgG) in test [1] of 2. Besides, the reduction of IgG1-RGY hexamers in test [2] worked out at 50%.

For “staphylococcal protein A, soluble construct containing all five Ig-binding domains (domain or fragment)”, the stoichiometry N in test [1], in test [3] and in test [4] was 1 SpA per IgG in each case.
